20 molecules from US20240092914A1 (NEW PARADIGM BIOSCIENCES USA, published 2024) can be followed below.

Residue numbers refer to the chain shown, from its start. Values joined by “and” are separate entries in the source; they are usually repeats but may differ in a detail not shown here. Equal values may be shown once.

T1: BDCA-2 antigen (Biorbyt CLEC4C orb358925) (human, UniProt Q8WTT0)
T1 construct: recombinant protein, construct not described; It is kept apart from m4 because it is a different preparation; also called human BDCA2 antigen
T1 sequence (antigen, looked up): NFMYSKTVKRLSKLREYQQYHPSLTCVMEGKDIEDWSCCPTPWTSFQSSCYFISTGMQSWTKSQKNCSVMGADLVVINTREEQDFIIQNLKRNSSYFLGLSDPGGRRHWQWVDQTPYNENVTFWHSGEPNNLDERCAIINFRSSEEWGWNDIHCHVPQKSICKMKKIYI

T2: recombinant human BDCA2 extracellular domain (UniProt Q8WTT0, residues 45-213) (human, UniProt Q8WTT0 45-213)
T2 construct: range 45-213; also called recombinant BDCA2 proteins; BDCA2 proteins
T2 sequence (looked up): T1 sequence (antigen, looked up)

T3: human BDCA2 on human plasmacytoid dendritic cells (human, UniProt Q8WTT0 1-213)
T3 sequence (looked up): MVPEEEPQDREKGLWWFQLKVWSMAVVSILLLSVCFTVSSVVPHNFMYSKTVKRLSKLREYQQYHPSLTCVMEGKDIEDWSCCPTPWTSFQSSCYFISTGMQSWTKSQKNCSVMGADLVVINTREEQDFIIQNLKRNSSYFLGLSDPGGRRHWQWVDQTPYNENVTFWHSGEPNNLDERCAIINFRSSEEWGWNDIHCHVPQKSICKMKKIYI

T4: recombinant rhesus BDCA2 extracellular domain (UniProt A0A1D5QFY5, residues 45-212) (rhesus, UniProt G7N5W2 45-211)
T4 construct: also called Monkey BDCA2
T4 sequence: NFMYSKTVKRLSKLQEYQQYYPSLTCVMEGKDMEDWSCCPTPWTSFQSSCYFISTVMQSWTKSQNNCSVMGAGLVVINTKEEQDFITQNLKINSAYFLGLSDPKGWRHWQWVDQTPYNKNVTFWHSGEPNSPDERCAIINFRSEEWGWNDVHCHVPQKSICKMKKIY

B1: NPB-303 humanized anti-BDCA2 monoclonal antibody (huIgG1) (antibody, V domains shown)
VH: EVQLVESGGGLVKPGGSLRLSCAASGFTFSTMSWVRQAPGKRLEWVASISSGGSTYYPDSVKGRFTISRDNAKNSLYLQMNSLRAEDTAVYYCARPSYDGYSSWFAYWGQGTLVTVSS
VL: EIVLTQSPATLSLSPGERATLSCKASQSVDYDGDGFMNWYQQKPGQAPRLLIYTASNLESGVPARFSGSGSGTDFTLTISSLEPEDFAVYYCQQSNEDPWTFGGGTKVEIKR
notes: Humanized from mouse mAb 12b, human IgG1/kappa
B2: NPB-303_A (antibody, V domains shown)
VH: B1 VH with D99E
VL: EIVLTQSPATLSLSPGERATLSCKASQSVDYDGDGFMNWYQQKPGQAPRLLIYTASNLESGVPARFSGSGSGTDFTLTISSLEPEDFAVYYCQQSNEDPWTFGGGTKVEIK
notes: whole antibody captured by anti-human Fc
B3: NPB-303_C.F (antibody, V domains shown)
VH: B1 VH with D99S
VL: B2 VL with D32E, G35A
notes: as for B2
B4: NPB-303_C.E (antibody, V domains shown)
VH: B1 VH with D99S
VL: B2 VL with G33A, G35A
notes: as for B2
B5: NPB-303_D (antibody, V domains shown)
VH: B1 VH
VL: B2 VL with D32E, D34E
notes: as for B2
B6: NPB-303_A.G (antibody, V domains shown)
VH: B1 VH with D99E
VL: B2 VL with G33A, D34E
notes: as for B2
B7: NPB-303_G (antibody, V domains shown)
VH: B1 VH
VL: B2 VL with G33A, D34E
notes: as for B2
B8: NPB-303_A.E (antibody, V domains shown)
VH: B1 VH with D99E
VL: B2 VL with G33A, G35A
notes: as for B2
B9: NPB-303_A.H (antibody, V domains shown)
VH: B1 VH with D99E
VL: B2 VL with D32S, D34S
notes: as for B2
B10: NPB-303_B.F (antibody, V domains shown)
VH: B1 VH with G100A
VL: B2 VL with D32E, G35A
notes: as for B2
B11: NPB-303_B.H (antibody, V domains shown)
VH: B1 VH with G100A
VL: B2 VL with D32S, D34S
notes: as for B2
B12: NPB-303_B.E (antibody, V domains shown)
VH: B1 VH with G100A
VL: B2 VL with G33A, G35A
notes: as for B2
B13: NPB-303_C.H (antibody, V domains shown)
VH: B1 VH with D99S
VL: B2 VL with D32S, D34S
notes: as for B2
B14: NPB-303_B.G (antibody, V domains shown)
VH: B1 VH with G100A
VL: B2 VL with G33A, D34E
notes: as for B2
B15: NPB-303_C (antibody, V domains shown)
VH: B1 VH with D99S
VL: B2 VL
notes: as for B2
B16: NPB-303_F (antibody, V domains shown)
VH: B1 VH
VL: B2 VL with D32E, G35A
notes: as for B2
B17: NPB-303_B (antibody, V domains shown)
VH: B1 VH with G100A
VL: B2 VL
notes: as for B2
B18: NPB-303_A.D (antibody, V domains shown)
VH: B1 VH with D99E
VL: B2 VL with D32E, D34E
notes: whole antibody captured by anti-human Fc; Made at small (3 mL) and large (100 mL) scale
B19: NPB-303_A.F (antibody, V domains shown)
VH: B1 VH with D99E
VL: B2 VL with D32E, G35A
notes: as for B2

The target in one experiment is T1, BDCA-2 antigen (Biorbyt CLEC4C …). As to the kind of experiment: ELISA, plate coated with BDCA-2 antigen, detection with HRP anti-human IgG Fc, A450 corrected by A590. The protocol:
Briefly, Nunc MaxiSorp 96-well plates were coated with BDCA-2 antigen (Biorbyt CLEC4C orb358925) overnight at 4° C. After washing, the plates were blocked by the Blocking Buffer (1% BSA in 1×PBS). […] After 1 hour incubation at room temperature, the plates were washed and added with the secondary antibody (HIRP-conjugated Goat anti-Human IgG Fc antibody; ThermoFisher A18829) for 1 hour at RT. The signals were developed by adding TMB substrate reagent (ThermoFisher 34021). The signals at 450 nm and 590 nm were read on the plate reader.
For B1, the “EC50 (read off the curve)” value was ~0.5 nM and ~0.3 nM.

A further experiment concerns the target T2, recombinant human BDCA2 extracellular …. As to the kind of experiment: SPR (Biacore), antibody captured on anti-human Fc chip, recombinant BDCA2 flowed over; small-scale batch. The protocol: (§1) BDCA2 antibody binding kinetics were measured using a Biacore surface plasmon resonance (SPR) instrument (GE Life Sciences). Briefly, anti-BDCA2 antibodies were captured on an anti-human Fc chip. The recombinant BDCA2 proteins were then flowed over the captured antibodies over a range of concentrations, at a rate of 50 μL/minute. The data was analyzed to determine kinetic constants using the BIAevaluation software package (GE Life Sciences). The sensorgrams of SPR based affinity testing for all 24 antibodies are shown in FIG. 55, and the biophysical characteristics of all 24 antibodies are summarized in Table 5.
In the case of B1, the Kd was found to be 1.19 nM, the koff is 0.000156 s⁻¹ and the kon was 131000 M⁻¹ s⁻¹.

For B2, the Kd worked out at 1.01 nM, the koff amounted to 0.000145 s⁻¹ and the on-rate (kon) is 144000 M⁻¹ s⁻¹.

Consider B3, for which the Kd was determined as 1.77 nM, the koff was determined as 0.000195 s⁻¹ and the kon is 110000 M⁻¹ s⁻¹.

B4: the Kd is 1.89 nM, the koff came out at 0.000237 s⁻¹ and the kon was 125000 M⁻¹ s⁻¹.

Take B5: the Kd is 1.25 nM, the koff was found to be 0.000144 s⁻¹ and the kon was determined as 115000 M⁻¹ s⁻¹.

B6: the Kd was 0.998 nM, the koff stood at 0.000142 s⁻¹ and the kon amounted to 142000 M⁻¹ s⁻¹.

Consider B7, for which the Kd is 1.31 nM, the koff stood at 0.000166 s⁻¹ and the kon stood at 126000 M⁻¹ s⁻¹.

As to B8, the Kd came out at 1.49 nM, the koff stood at 0.000183 s⁻¹ and the kon amounted to 123000 M⁻¹ s⁻¹.

Turning to B9, the dissociation constant Kd is 1.49 nM, the koff came to 0.000159 s⁻¹ and the kon stood at 107000 M⁻¹ s⁻¹.

For the molecule B10, the Kd was determined as 3.44 nM, the koff stood at 0.000232 s⁻¹ and the kon is 67600 M⁻¹ s⁻¹.

In the case of B11, the Kd amounted to 3.47 nM, the koff was determined as 0.000272 s⁻¹ and the kon came to 78500 M⁻¹ s⁻¹.

For the molecule B12, the Kd worked out at 4.77 nM, the koff is 0.000409 s⁻¹ and the kon was 85600 M⁻¹ s⁻¹.

In the case of B13, the Kd was determined as 2.02 nM, the koff is 0.000197 s⁻¹ and the kon came to 97400 M⁻¹ s⁻¹.

Turning to B14, the Kd is 2.63 nM, the koff was determined as 0.000286 s⁻¹ and the on-rate (kon) was determined as 109000 M⁻¹ s⁻¹.

As for B15, the Kd came out at 1.2 nM, the koff stood at 0.000165 s⁻¹ and the kon came out at 138000 M⁻¹ s⁻¹.

As to B16, the Kd was found to be 1.74 nM, the koff turned out to be 0.000187 s⁻¹ and the kon was determined as 107000 M⁻¹ s⁻¹.

Take B17: the Kd came out at 2.06 nM, the koff came to 0.000193 s⁻¹ and the kon worked out at 93900 M⁻¹ s⁻¹.

As to B18, the Kd worked out at 1.06 nM, the off-rate constant (koff) worked out at 0.000138 s⁻¹ and the kon came out at 130000 M⁻¹ s⁻¹.

Take B19: the Kd was determined as 1.41 nM, the koff amounted to 0.000164 s⁻¹ and the kon is 116000 M⁻¹ s⁻¹.

The target in another experiment is T3, human BDCA2 on human plasmacytoid …. As to the kind of experiment: cell-based or functional assay.
On to B1, for which the “IC50 of inhibition of IFNα production by CpG-stimulated human PBMC (multiple donors)” value was about 3 ng/mL.

Another experiment has as its target human BDCA2 on human plasmacytoid dendritic cells (human) (UniProt Q8WTT0). As to the kind of experiment: flow cytometry on human PBMC with APCCy7-labelled control antibody, gate Lin- then CD4+CD123+ (pDC).
Molecule mIgG1-APCCy7 (antibody) showed a % of the gated Lin-CD123+ cells in Q2 (CD123+, APCCy7+) of 7.29%.

For another experiment, the target named is T2, recombinant human BDCA2 extracellular …. As to the kind of experiment: SPR / in vitro binding to BDCA2 proteins (FIG. 7, FIG. 8).
In the case of B1, the Kd is about 1 nM, the koff is about 0.00033 s⁻¹ and the on-rate constant (kon) was about 210000 M⁻¹ s⁻¹.

The target is the same in the next experiment. As to the kind of experiment: SPR (Biacore), recombinant BDCA2; large-scale (100 mL) batch. As for the experimental part: as §1
Consider B18, for which the Kd was found to be 0.927 nM, the koff was found to be 0.000133 s⁻¹ and the kon was found to be 144000 M⁻¹ s⁻¹.

A further experiment has the same target. As to the kind of experiment: SPR (Biacore), antibody as ligand, HsCD303HIS as sample, 25 °C, 1:1 Binding fit; Table 1 prints 7.29 x 10^5, but the sheet's exponent fits the printed kd 3.271E-4 and KD 4.487E-9.
Consider B1, for which the kon came out at 72900 M⁻¹ s⁻¹.

A further experiment shares this target. As to the kind of experiment: SPR (Biacore), antibody captured on Protein A chip, recombinant BDCA2 ECD flowed over. As for the experimental part: (§2) BDCA2 antibody binding kinetics were measured using a Biacore surface plasmon resonance (SPR) instrument (GE Life Sciences). Briefly, anti-BDCA2 antibodies were captured on a Protein A sensor chip (GE Life Sciences). The recombinant BDCA2 proteins were then flowed over the captured antibodies over a range of concentrations, at a rate of 50 μL/minute. The data was analyzed to determine kinetic constants using the BIAevaluation software package (GE Life Sciences).
For B1, the koff was determined as 0.000327 s⁻¹.

For a further experiment, the target named is T4, recombinant rhesus BDCA2 extracellular …. Described as above. The protocol: as §2
Take B1: the Kd stood at 9.2 nM, the koff is 0.00157 s⁻¹ and the kon stood at 170000 M⁻¹ s⁻¹.
